T1: GST-RB18A-N2 (Homo sapiens, UniProt Q15648 SEQ:1234-1566)
T1 chain: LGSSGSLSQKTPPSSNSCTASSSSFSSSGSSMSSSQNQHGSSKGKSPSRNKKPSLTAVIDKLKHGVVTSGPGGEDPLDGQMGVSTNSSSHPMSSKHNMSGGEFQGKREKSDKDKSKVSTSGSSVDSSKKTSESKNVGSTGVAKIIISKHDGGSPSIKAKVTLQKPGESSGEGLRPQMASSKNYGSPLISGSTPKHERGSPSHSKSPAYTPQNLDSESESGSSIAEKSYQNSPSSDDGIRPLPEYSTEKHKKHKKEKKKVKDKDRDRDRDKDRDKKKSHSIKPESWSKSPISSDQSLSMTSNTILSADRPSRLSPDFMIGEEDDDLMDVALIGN

B1: TL non-specific competitor (dsDNA)
DNA 1: TATGTCTAAGGGACCTGCGGTTGGCATTGATCTTG
DNA 2: CAAGATCAATGCCAACCGCAGGTCCCTTAGACATA
B2: PG p53 consensus oligonucleotide (dsDNA)
DNA 1: AATTCAGACATGCCTAGACATGCCTG
DNA 2: CAGGCATGTCTAGGCATGTCTGAATT

What was measured:
p53 wild-type = p53 wild-type (Homo sapiens, UniProt P04637 P04637:1-393); assay: competition; non-specific oligo did not inhibit the complex with n1; conditions: tags: none; plasmid pSP65-p53H8; chain copies: 4
p53 wild-type, sequence (P04637 whole entry, one chain of several): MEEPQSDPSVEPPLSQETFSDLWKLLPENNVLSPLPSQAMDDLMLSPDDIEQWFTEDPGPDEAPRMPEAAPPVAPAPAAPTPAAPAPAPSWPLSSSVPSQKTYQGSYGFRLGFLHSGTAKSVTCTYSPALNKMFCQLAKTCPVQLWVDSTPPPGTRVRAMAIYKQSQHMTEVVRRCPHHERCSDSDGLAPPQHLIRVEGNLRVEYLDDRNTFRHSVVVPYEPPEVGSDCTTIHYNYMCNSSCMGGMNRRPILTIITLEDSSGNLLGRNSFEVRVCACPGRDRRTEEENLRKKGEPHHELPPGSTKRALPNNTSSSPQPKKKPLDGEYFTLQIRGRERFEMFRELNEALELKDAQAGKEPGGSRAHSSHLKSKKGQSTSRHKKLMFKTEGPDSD
Experimental: (§1) Part A: four μl of in vitro translated products of wild-type p53 (lanes 2, 5-10) or Luciferase (lanes 3-4) cDNAs were incubated for 20 min at room temperature with 0.2 μg of PAb421 (lane 5) or PAb1801 (lane 6) moAbs or with 1 μg of GST-RB18A-N2 (lanes 4, 7, 8 and 9) or GST-RB18A-Nl1 (lane 10) proteins. Then, a radiolabeled oligonucleotide (0.4 ng per lane) containing the consensus DNA binding site of p53 was added for 20 min at 4° C.
(§2) EMSA was performed as follows. Translated product (4 μl) was pre-incubated for 20 min at room temperature with 1 μg of GST-RB18A fusion protein or 0.2 μg of moAb in a final reaction volume of 14 μl of buffer A (25 mM Tris, pH 7.4, 80 mM KCl, 0.1 mM EDTA, 1 mM DTT and 10% glycerol). Then, 6 μl of buffer B (80 mM KCl, 16.6 mM MgCl₂ and 3 mg/ml BSA) containing 0.4 ng of labeled oligonucleotide and 0.5 μg of poly(dl-dC) were added and incubation was carried out for 20 min at 4° C. Reaction products were run for 15 min at 200 V on a 4% polyacrylamide gel containing 0.4×Tris-Borate-EDTA (90 mM Tris, 64.6 mM Borate, 2.5 mM EDTA, pH 8.3).

GST-RB18A-N2 = target: T1, GST-RB18A-N2; assay: EMSA; no direct interaction with p53 oligonucleotide; conditions: tags: N-terminal GST; label: 32P; EcoRI-compatible ends
Experimental: as §1, §2

Binder | binding result (p53 wild-type) | binding result (GST-RB18A-N2)
B1 | no binding | –
B2 | – | no binding

Reference: patent US20040052794, “p53 regulatory protein called RB18A and uses thereof” (published 2004)
